In article PMC6071530 (2018):

Target: ERBB2 (Homo sapiens (Human), UniProt P04626)
Assay: SPR (ErbB-Fc on chip, avid)

B1: S100A4 (protein)
chain 1: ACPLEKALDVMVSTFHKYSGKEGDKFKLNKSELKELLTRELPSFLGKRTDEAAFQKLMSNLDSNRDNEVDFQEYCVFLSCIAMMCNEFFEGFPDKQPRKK
chain 2: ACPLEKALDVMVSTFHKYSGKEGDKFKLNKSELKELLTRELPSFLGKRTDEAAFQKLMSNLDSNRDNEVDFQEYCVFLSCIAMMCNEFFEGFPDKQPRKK
B1 gave a Kd of over 1250 nM.
